Results published in paper PMC3665681.

Molecular target: A3B3 of Thermus thermophilus VoV1 (His-tagged A3B3, expressed without a rotor subunit) (T. thermophilus) (UniProt Q56403)
Sequence of UniProt Q56403 (Q56403 whole entry C28S/S232A/T235S/C255A, chain 1 of 2): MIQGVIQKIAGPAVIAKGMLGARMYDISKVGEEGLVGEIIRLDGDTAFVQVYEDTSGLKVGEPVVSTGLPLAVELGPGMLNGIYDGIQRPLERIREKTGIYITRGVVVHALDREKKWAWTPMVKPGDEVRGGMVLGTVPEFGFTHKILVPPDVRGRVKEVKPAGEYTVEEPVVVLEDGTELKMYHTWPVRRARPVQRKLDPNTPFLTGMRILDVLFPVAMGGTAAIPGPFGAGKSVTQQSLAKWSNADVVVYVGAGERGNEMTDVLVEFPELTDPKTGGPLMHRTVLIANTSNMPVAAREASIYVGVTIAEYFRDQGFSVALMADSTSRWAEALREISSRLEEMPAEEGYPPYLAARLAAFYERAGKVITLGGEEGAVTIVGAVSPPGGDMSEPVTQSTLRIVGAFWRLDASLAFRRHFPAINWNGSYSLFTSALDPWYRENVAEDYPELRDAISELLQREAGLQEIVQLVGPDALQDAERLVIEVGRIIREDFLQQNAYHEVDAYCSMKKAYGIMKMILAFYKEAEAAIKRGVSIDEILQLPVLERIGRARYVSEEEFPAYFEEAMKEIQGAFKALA
Sequence of UniProt Q56403 (Q56404 whole entry C264S, chain 2 of 2, further chain): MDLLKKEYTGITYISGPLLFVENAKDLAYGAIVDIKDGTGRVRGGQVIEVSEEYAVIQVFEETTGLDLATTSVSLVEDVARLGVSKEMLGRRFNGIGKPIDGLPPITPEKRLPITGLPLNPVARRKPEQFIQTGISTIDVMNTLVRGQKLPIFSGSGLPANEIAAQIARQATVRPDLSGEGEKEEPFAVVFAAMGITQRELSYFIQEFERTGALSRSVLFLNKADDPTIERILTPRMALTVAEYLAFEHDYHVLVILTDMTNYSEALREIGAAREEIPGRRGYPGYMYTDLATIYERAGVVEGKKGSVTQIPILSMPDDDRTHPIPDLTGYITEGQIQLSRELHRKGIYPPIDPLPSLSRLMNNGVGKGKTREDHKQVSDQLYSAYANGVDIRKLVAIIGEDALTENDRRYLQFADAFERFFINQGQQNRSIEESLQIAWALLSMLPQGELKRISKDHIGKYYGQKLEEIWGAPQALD

For “FliJ of Salmonella enterica serovar Typhimurium (from UniProt P0A1K1 1-147) (natural protein)”, the ATPase turnover rate of A3B3J (A3B3 alone ∼4.0 s^−1); 25°C, 4 mM MgATP was 7 s⁻¹.
